Assay results as given in publication doi:10.1101/2025.06.11.659212 (bioRxiv, 2025).

Target: the molecule itself
Assay: cryo-EM structure

B1: cyanide hydratase from Gloeocercospora sorghi (enzyme, UniProt P32964 1-368, looked up)
chain: MPINKYKAAVVTSEPVWENLEGGVVKTIEFINEAGKAGCKLIAFPEVWIPGYPYWMWKVNYLQSLPMLKAYRENSIAMDSSEMRRIRAAARDNQIYVSIGVSEIDHATLYLTQVLISPLGDVINHRRKIKPTHVEKLVYGDGSGDSFEPVTQTEIGRLGQLNCWENMNPFLKSLAVARGEQIHVAAWPVYPDLSKQVHPDPATNYADPASDLVTPAYAIETGTWVLAPFQRISVEGLKRHTPPGVEPETDATPYNGHARIFRPDGSLYAKPAVDFDGLMYVDIDLNESHLTKALADFAGHYMRPDLIRLLVDTRRKELVTEVGGGDNGGIQSYSTMARLGLDRPLEEEDYRQGTDAGETEKASSNGHA
In the case of B1, the “stoichiometry N” value is reported as 24 monomers.

B2: cyanide dihydratase from Bacillus safensis strain PER-URP-08 (enzyme, UniProt P0DXY3 1-330, looked up)
chain: MTSIYPKFRAAAVQAAPVYLNLEATVEKSCELIDEAASNGAKLVAFPEAFLPGYPWFAFIGHPEYTRKFYHELYKNAVEIPSLAIQKISEAAKRNETYVCISCSEKDGGSLYLAQLWFNPNGDLIGKHRKMRASVAERLIWGDGSGSMMPVFQTDIGNLGGLMCWEHQVPLDLMAMNAQNEQVHVASWPGYFDDEISSRYYAIATQTFVLMTSSIYTEEMKEMICLTQEQRDYFETFKSGHTCIYGPDGEPISDMVPAETEGIAYAEIDVERVIDYKYYIDPAGHYSNQSLSMNFNQQPTPVVKQLYHQKNEVFTYEDIQYQHGILEEKV
With B2 the “stoichiometry N” value was 18 monomers.
